Source: patent US20200062844A1

Assays:
[1] = molecular target: human FcεR1α expressed on cells (human) (UniProt P12319); assay: flow cytometry, 70 nM antibody on HEK293/hFcεR1α/hFcεR1β/hFcεR1γ cells pre-incubated with 70 nM human IgE
[2] = molecular target: monkey (cynomolgus) FcεR1α expressed on cells (cynomolgus); assay: flow cytometry, 70 nM antibody on HEK293/mfFcεR1α/hFcεR1β/hFcεR1γ cells pre-incubated with 70 nM human IgE
[3] = molecular target: human CD3 expressed in Jurkat cells (human) (UniProt P07766); assay: cell-based or functional assay
Chain of human CD3 expressed in Jurkat cells (human) (P07766 23-207 limits assumed, chain 1 of 4): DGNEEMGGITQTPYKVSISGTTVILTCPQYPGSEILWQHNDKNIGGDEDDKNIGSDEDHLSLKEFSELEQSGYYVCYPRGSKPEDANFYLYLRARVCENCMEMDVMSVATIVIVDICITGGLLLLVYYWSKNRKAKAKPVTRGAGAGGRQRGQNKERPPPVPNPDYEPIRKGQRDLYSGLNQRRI
Chain of human CD3 expressed in Jurkat cells (human) (chain, as listed by the source limits assumed, chain 2 of 4): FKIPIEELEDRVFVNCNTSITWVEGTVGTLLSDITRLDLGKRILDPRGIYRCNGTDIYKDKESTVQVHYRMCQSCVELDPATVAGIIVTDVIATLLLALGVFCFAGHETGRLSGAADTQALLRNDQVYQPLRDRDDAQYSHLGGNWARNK
Chain of human CD3 expressed in Jurkat cells (human) (chain, as listed by the source limits assumed, chain 3 of 4): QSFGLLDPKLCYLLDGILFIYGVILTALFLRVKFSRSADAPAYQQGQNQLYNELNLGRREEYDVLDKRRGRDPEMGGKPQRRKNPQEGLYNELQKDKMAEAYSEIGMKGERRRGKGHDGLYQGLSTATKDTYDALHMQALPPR
Chain of human CD3 expressed in Jurkat cells (human) (chain, as listed by the source limits assumed, chain 4 of 4): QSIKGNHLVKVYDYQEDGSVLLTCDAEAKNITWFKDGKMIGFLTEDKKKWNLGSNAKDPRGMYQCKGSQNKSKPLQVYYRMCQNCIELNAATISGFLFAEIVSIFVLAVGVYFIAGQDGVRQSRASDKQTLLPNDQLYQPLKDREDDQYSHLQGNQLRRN

[4] = molecular target: monkey (cynomolgus) FcεR1α expressed on cells (cynomolgus); assay: flow cytometry, 70 nM antibody on HEK293/mfFcεR1α/hFcεR1β/hFcεR1γ cells, No IgE
[5] = molecular target: human CD3 expressed in Jurkat cells (human) (UniProt P07766); assay: flow cytometry, 70 nM antibody on Jurkat/NFAT-luc cells, No IgE
[6] = molecular target: human FcεR1α expressed on cells (human) (UniProt P12319); assay: flow cytometry, 70 nM antibody on HEK293/hFcεR1α/hFcεR1β/hFcεR1γ cells, No IgE
hFcεR1α.MMH (human) [7] = assay: SPR (Biacore 8k), antibody captured on anti-human Fc, hFcεR1α.MMH injected, 37°C
Chain of hFcεR1α.MMH (human) (chain, as listed by the source limits assumed): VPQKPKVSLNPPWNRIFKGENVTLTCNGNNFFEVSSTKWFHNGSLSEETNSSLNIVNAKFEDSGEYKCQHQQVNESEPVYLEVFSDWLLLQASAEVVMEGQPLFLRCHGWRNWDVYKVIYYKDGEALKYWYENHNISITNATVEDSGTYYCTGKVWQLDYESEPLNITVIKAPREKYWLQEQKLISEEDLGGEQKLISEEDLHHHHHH

[8] = molecular target: mfFcεR1α.MMH (cynomolgus (Macaca fascicularis)); assay: SPR (Biacore 8k), antibody captured on anti-human Fc, mfFcεR1α.MMH injected, 37°C
Chain of mfFcεR1α.MMH (cynomolgus (Macaca fascicularis)) (chain, as listed by the source limits assumed): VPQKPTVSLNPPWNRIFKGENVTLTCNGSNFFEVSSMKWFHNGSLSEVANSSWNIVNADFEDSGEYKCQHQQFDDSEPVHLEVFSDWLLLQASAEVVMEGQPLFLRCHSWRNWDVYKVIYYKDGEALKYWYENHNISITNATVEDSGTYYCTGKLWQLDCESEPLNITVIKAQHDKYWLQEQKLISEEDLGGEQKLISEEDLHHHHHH

hFcεR1α.MMH (human) [9] = assay: SPR (Biacore 8k), antibody captured on anti-human Fc, hFcεR1α.MMH injected, 25°C
[10] = molecular target: mfFcεR1α.MMH (cynomolgus (Macaca fascicularis)); assay: SPR (Biacore 8k), antibody captured on anti-human Fc, mfFcεR1α.MMH injected, 25°C

Chain of human FcεR1α expressed on cells (human) (P12319 26-257): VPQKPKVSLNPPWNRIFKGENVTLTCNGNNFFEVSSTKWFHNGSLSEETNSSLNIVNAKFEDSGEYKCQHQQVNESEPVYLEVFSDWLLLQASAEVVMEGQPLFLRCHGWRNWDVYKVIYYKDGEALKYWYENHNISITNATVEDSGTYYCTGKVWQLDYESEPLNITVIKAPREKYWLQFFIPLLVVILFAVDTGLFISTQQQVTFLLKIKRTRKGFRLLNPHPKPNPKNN

Substance	Binding Ratio (MFI of Treated/MFI of Unstained) [1]	Binding Ratio (MFI of Treated/MFI of Unstained) [2]	Fold Activation, Jurkat/NFAT-luc with HEK293/hFcεR1α/hFcεR1β/hFcεR1γ cells, 10 nM IgE [3] [fold]	Fold Activation, Jurkat/NFAT-luc with HEK293/hFcεR1α/hFcεR1β/hFcεR1γ cells, No IgE [3] [fold]	Binding Ratio (MFI of Treated/MFI of Unstained) [4]	Binding Ratio (MFI of Treated/MFI of Unstained) [5]	Binding Ratio (MFI of Treated/MFI of Unstained) [6]	600 nM hFcεR1α.MMH Bound (RU) (hFcεR1α.MMH (human) [7])	600 nM mfFceR1a.MMH Bound (RU) [8] [RU]	600 nM hFcεR1α.MMH Bound (RU) (hFcεR1α.MMH (human) [9])	600 nM mfFceR1a.MMH Bound (RU) [10] [RU]
Human IgG4 Control (antibody)	1	1	1	1	1	1	1				
Human IgG4 Stealth Control (antibody)	1	1	1	1	1	2	1				
Isotype Control mAb (antibody)								-2	-9	-5	-9
